Laboratory results as given in paper PMC7253899 (Saudi Journal of Biological Sciences, 2020).

Target: the molecule itself
Test: SEC-MALS

B1: TRAIP Leucine zipper domain (198-280 a.a) (domain or fragment, human, UniProt Q9BWF2 198-280, looked up)
chain: AVYCVSLKKEYENLKEARKASGEVADKLRKDLFSSRSKLQTVYSELDQAKLELKSAQKDLQSADKEIMSLKKKLTMLQETLNL
For B1, the “stoichiometry N” value was 3.
